Target: SARS-CoV-2 spike (S/S1) protein (SARS-CoV-2, UniProt P0DTC2 P0DTC2:14-685)

B1: CoV2-RBD-4C aptamer-P2 hybridized to P1 (iMP) (mixed)
DNA 1: ATCCAGAGTGACGCAGCATTTCATCGGGTCCAAAAGGGGCTGCTCGGGATTGCGGATATGGACACGTTTTTCTTATTAGATACAATAGCTGGTA
DNA 2: TACCAGCTATTGTATCTAATAAGA
modifications: P1 strand 5'-thiol-MC6 on gold electrode, 3'-NH2 conjugated to ferrocene
- binding result: binds

Source: patent publication US20230107004, “[…] ELECTROCHEMICAL BIOSENSOR” (THE GOVERNING COUNCIL OF THE UNIVERSITY OF TORONTO, published 2023)
